Measured values as given in patent US20070049521A1 (ENOBIA PHARMA, published 2007).
Values belong to the binder of their own block, whether it stands above or below them. No end group written: not given here.

Assays:
[1] = target: T1, human GC-B, overexpressed on HEK293 cells (human, UniProt P20594 23-1047); assay: PLAP activity bound to transiently transfected HEK293 cells
T1 construct: whole, on cells
T1 sequence (looked up): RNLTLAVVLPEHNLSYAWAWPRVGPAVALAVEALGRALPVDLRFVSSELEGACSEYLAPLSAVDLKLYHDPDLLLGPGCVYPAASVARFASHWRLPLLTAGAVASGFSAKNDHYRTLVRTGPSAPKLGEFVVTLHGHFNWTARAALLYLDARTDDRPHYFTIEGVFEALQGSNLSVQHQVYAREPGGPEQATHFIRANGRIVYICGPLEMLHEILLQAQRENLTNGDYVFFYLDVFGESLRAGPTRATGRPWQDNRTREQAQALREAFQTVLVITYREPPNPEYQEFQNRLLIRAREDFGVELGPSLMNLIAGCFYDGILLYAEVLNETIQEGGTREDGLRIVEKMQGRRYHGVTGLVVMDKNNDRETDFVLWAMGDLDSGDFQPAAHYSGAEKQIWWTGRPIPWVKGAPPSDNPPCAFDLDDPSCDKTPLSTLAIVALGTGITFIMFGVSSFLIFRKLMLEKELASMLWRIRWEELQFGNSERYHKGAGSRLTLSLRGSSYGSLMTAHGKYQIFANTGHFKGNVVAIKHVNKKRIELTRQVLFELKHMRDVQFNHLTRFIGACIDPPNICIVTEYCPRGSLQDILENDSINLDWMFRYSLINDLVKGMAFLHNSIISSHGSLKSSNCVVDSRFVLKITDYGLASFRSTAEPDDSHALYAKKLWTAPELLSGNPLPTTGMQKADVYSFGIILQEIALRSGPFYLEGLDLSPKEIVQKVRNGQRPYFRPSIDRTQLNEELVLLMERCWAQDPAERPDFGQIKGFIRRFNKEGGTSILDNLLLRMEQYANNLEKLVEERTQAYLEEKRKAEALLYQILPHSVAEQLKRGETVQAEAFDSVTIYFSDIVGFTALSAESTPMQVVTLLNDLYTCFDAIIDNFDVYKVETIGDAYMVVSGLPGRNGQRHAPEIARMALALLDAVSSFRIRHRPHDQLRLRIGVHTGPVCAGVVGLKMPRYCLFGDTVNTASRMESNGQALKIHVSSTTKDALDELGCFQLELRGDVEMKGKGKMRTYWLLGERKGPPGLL
Text: (§1) To analyze the potential binding of Ostn to natriuretic receptors, a fusion protein (PLAP-Ostn) (FIG. 6) was generated as described above. This fusion protein comprised an N-terminal secreted placental alkaline phosphatase (PLAP) moiety linked to mature mouse Ostn (residues 29-130) (SEQ ID NO: 62). Conditioned media containing PLAP-mOstn was used to assess Ostn binding on transiently transfected cells.

[2] = target: T2, rat GC-A, overexpressed on HEK293 cells (rat, UniProt P18910 29-1057); assay: as above
T2 construct: whole, on cells
T2 sequence (looked up): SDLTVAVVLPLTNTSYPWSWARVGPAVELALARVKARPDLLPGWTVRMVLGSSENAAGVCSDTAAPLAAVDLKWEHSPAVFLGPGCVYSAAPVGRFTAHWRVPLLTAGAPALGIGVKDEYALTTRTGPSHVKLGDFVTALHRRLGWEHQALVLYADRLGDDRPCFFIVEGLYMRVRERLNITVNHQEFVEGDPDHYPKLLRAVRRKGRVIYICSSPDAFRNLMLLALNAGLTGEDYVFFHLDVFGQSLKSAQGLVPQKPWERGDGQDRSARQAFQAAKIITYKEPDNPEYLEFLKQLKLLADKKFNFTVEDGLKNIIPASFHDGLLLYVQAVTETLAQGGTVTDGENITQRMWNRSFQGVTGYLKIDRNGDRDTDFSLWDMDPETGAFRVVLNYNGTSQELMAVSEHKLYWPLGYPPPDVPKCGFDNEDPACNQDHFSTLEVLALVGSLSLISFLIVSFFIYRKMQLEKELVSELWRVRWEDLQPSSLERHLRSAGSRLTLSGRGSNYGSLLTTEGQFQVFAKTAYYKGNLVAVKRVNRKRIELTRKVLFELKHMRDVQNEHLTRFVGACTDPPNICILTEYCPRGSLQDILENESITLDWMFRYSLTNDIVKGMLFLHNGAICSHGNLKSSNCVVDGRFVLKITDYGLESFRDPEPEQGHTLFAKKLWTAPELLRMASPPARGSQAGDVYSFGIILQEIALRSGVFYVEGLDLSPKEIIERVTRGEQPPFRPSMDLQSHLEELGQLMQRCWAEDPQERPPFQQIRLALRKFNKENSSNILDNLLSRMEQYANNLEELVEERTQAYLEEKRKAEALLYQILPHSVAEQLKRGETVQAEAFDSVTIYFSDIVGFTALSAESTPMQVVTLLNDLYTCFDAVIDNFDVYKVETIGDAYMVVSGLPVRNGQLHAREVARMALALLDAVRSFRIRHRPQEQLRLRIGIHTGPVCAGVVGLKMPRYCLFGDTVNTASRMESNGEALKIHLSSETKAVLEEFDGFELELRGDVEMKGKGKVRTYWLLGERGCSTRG
Text: as §1

[3] = target: T3, human NPR-C (natriuretic peptide receptor C, clearance receptor), overexpressed on HEK293 cells (human, UniProt P17342 27-541); assay: PLAP activity bound to NPR-C-transfected HEK293 cells, saturation binding
T3 construct: whole, on cells; also called natriuretic clearance receptor
T3 sequence (looked up): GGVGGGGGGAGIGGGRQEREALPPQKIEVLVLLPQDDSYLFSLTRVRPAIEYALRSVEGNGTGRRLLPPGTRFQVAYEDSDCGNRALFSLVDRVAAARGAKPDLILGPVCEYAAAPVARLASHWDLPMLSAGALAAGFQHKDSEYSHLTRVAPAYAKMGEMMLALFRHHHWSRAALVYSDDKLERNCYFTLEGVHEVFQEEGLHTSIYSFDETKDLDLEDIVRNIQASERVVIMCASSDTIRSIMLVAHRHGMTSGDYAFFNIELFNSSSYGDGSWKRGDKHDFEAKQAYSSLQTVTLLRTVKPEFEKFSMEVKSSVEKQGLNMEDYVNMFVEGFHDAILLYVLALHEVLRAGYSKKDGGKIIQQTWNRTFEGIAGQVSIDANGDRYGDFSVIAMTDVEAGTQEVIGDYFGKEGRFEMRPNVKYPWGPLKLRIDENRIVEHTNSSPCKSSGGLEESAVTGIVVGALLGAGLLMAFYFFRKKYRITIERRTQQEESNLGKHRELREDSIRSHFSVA
Text: as §1

[4] = target: T3, human NPR-C (natriuretic peptide …); assay: cell-based or functional assay
[5] = target: T3, human NPR-C (natriuretic peptide …); assay: competition of ~30 nM PLAP-Ostn binding on NPR-C-transfected HEK293 cells
Method: To further validate the specificity and affinity of Ostn-NPR-C binding, competition experiments were conducted in NPR-C over-expressing cells. […] (SEQ ID NO: 71) lacking a part of NM2. […] (SEQ ID NO: 66) or Ostn[117-130] (SEQ ID NO: 71). […] (SEQ ID NO: 66) was able to compete off 50% of the binding of PLAP-mOstn in the ˜1-10 nM range, in contrast to Ostn[117-130] (SEQ ID NO: 71) that was unable to efficiently compete up to 100 nM (FIG. 7B).

[6] = target: T4, endogenous GC-A of HEK293 cells (human, UniProt P16066 33-1061); assay: cell-based or functional assay
T4 sequence (looked up): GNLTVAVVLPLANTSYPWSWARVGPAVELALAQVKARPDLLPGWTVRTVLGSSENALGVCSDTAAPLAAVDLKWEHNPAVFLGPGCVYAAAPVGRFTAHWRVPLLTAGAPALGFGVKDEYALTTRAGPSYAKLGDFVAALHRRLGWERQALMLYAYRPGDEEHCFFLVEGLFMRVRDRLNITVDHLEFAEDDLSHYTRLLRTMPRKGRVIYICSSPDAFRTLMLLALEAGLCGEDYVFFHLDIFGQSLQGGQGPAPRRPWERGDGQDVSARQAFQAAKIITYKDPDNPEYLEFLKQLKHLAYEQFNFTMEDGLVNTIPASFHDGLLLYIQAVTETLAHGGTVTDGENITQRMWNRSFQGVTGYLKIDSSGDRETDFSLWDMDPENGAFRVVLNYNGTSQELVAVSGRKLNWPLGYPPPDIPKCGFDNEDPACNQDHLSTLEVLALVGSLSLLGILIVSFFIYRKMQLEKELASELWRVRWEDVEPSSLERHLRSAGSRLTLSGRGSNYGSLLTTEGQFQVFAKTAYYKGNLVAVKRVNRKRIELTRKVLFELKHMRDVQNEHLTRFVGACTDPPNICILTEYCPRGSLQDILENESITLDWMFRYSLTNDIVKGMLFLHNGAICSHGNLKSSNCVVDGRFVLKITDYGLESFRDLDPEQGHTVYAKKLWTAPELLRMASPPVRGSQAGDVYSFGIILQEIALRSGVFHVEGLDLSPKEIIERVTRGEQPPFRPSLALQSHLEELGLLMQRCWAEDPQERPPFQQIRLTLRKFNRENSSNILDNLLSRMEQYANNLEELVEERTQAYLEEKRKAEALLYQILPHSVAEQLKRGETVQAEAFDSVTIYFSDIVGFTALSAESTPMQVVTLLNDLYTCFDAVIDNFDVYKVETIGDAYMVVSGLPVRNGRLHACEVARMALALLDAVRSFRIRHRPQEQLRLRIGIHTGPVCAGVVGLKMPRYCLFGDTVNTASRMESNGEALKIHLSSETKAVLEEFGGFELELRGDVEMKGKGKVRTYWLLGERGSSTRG

[7] = target: T5, NPR-C on ATDC5 cells (mouse chondrogenic cell line) (mouse, UniProt P70180 41-536); assay: displacement of 125I-Ostn[83-133] from ATDC5 cells
T5 construct: whole, on cells; also called ATDC5 cells surface
T5 sequence (looked up): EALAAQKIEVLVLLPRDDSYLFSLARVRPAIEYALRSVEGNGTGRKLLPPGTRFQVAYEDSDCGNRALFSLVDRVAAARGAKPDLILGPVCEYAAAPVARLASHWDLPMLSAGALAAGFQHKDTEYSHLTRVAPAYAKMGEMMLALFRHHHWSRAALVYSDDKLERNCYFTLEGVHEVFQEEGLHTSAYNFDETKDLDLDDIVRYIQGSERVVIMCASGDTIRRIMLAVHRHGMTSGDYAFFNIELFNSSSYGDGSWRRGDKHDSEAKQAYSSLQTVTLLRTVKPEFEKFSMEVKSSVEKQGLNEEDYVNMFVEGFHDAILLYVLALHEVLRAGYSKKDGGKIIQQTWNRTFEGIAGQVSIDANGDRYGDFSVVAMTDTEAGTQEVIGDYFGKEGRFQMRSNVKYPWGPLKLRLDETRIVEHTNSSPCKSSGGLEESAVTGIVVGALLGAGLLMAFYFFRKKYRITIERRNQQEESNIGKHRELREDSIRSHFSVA
Method: (SEQ ID NO: 41) for 90 min at 4° C. After incubation, cells were washed twice with ice-cold PBS and solubilized with 0.5-ml of 0.5 M NaOH.
The radioactivity was measured with gamma-counter (Wallac). […] (SEQ ID NO: 41) and the IC₅₀ calculated was 4.7 nM. […] (SEQ ID NO: 41) (FIG. 12b).

binding result [1]: no binding
binding result [2]: no binding
EC50 [3]: ~30 nM
B1: PLAP-Ostn fusion protein (N-terminal secreted placental alkaline phosphatase moiety linked to mouse Ostn[29-130]) (other)
chain: DAAQPARRARRTYEAYVRSSGIIPVEEENPDFWNREAAEALGAAKKLQPAQTAAKNLIIFLGDGMGVSTVTAARILKGQKKDKLGPEIPLAMDRFPYVALSKTYNVDKHVPDSGATATAYLCGVKGNFQTIGLSAAARFNQCNTTRGNEVISVMNRAKKAGKSVGVVTTTRVQHASPAGTYAHTVNRNWYSDADVPASARQEGCQDIATQLISNMDIDVILGGGRKYMFPMGTPDPEYPDDYSQGGTRLDGKNLVQEWLAKRQGARYVWNRTELMQASLDPSVTHLMGLFEPGDMKYEIHRDSTLDPSLMEMTEAALRLLSRNPRGFFLFVEGGRIDHGHHESRAYRALTETIMFDDAIERAGQLTSEEDTLSLVTADHSHVFSFGGYPLRGSSIFGLAPGKARDRKAYTVLLYGNGPGYVLKDGARPDVTESESGSPEYRQQSAVPLDEETHAGEDVAVFARGPQAHLVHGVQEQTFIAHVMAFAACLEPYTACDLAPPAGTTDAAHPGYLDLASQEFGTASLQSPPTAREEKSATELSAKLLRLDDLVSLENDVFETKKKRSFSGFGSPLDRLSAGSVEHRGKQRKAVDHSKKRFGIPMDRIGRNRLSSSRG
notes: Used as conditioned medium of transfected HEK293 cells; also called PLAP-mOstn

cGMP levels of NPR-C-expressing HEK293 cells with 0.1 nM ANP and 10 nM Ostn[107-129] [4]: 4 fold
IC50 [5]: 1 to 10 nM
Binder: YDHSKKRFGIPMDRIGRNRLSNSR-NH2 [mouse amidated Ostn[107-129] synthetic C-terminal peptide]

increase in cGMP levels upon ANP stimulation of GFP-transfected HEK293 cells [6]: 9 fold
increase in cGMP levels upon stimulation of NPR-C-overexpressing HEK293 cells with 0.1 nM ANP[1-28] [4]: 1.5 fold
Binder: SLRRSSCFGGRIDRIGAQSGLGCNSFRY (ligand, ends and bridges not checked; cysteine pairing not given here) [Rat ANP (1-28)]

IC50 [7]: 4.7 nM
B2: human Ostn[83-133] (cold) (peptide)
peptide: SFSGFGSPLDRLSAGSVDHKGKQRKVVDHPKRRFGIPMDRIGRNRLSNSRG
notes: Bought from Phoenix Pharmaceutical co
